Results reported in patent US20130079278A1 (Novo Nordisk, published 2013).
*1 amine or outer side, *2 acyl side, *3 side chain or, on linkers, in order; H or OH if unused. Where no end group is shown, it is not given here. Side-chain parts run from the residue outwards. The star is where a group is joined. C18 diacid = O=C(O)CCCCCCCCCCCCCCCCC(=O)*; C16 diacid = O=C(O)CCCCCCCCCCCCCCC(=O)*; γGlu = O=C(O)[C@H](CCC(=O)[*:2])N[*:1]; AEEA = NCCOCCOCC(=O)O

These binders were tested against glucagon receptor (human, UniProt P47871 26-477) (assay: cell-based or functional assay).
Sequence of glucagon receptor (P47871 26-477): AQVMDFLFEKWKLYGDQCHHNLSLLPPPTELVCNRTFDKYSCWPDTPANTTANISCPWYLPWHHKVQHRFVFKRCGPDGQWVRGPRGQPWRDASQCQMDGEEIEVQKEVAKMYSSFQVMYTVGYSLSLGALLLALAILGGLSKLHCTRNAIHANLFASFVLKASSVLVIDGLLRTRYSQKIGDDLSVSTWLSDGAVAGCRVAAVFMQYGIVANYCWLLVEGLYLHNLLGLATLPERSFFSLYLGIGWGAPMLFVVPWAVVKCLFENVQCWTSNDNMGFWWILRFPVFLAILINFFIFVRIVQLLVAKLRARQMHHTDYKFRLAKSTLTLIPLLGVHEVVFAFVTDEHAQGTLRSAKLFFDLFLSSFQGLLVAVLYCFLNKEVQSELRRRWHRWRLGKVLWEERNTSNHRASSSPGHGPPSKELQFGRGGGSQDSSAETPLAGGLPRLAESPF

| Assay (I) Glucagon [EC50] | Binder |
| --- | --- |
| 0.017 nM | HSQGTFTSDYSKYLDTRRAQDFVK([γGlu-γGlu-AEEA-AEEA-γGlu-C16 diacid])WLLST |
| 0.009 nM | HSQGTFTSDYSKYLDVRRAQDFVK([γGlu-γGlu-AEEA-AEEA-γGlu-C16 diacid])WLLST |
| 0.027 nM | HSQGTFTSDYSRYLDLRRAQDFVK([γGlu-γGlu-γGlu-C16 diacid])WLLST |
| 0.126 nM | HSQGTFTSDYSKYLDLRRAQDFVK([γGlu-γGlu-γGlu-γGlu-C18 diacid])WLLST |
| 0.189 nM | HSQGTFTSDYSKYLDIRRAQDFVK([γGlu-γGlu-γGlu-γGlu-C18 diacid])WLLST |
| 0.402 nM | HSQGTFTSDYSKYLDIRRAQDFVK([γGlu-γGlu-γGlu-γGlu-C18 diacid])WLLST-NH2 (N-terminus assumed; SMILES CC[C@H](C)[C@H](NC(=O)[C@H](CC(=O)O)NC(=O)[C@H](CC(C)C)NC(=O)[C@H](Cc1ccc(O)cc1)NC(=O)[C@H](CCCCN)NC(=O)[C@H](CO)NC(=O)[C@H](Cc1ccc(O)cc1)NC(=O)[C@H](CC(=O)O)NC(=O)[C@H](CO)NC(=O)[C@@H](NC(=O)[C@H](Cc1ccccc1)NC(=O)[C@@H](NC(=O)CNC(=O)[C@H](CCC(N)=O)NC(=O)[C@H](CO)NC(=O)[C@@H](N)Cc1c[nH]cn1)[C@@H](C)O)[C@@H](C)O)C(=O)N[C@@H](CCCNC(=N)N)C(=O)N[C@@H](CCCNC(=N)N)C(=O)N[C@@H](C)C(=O)N[C@@H](CCC(N)=O)C(=O)N[C@@H](CC(=O)O)C(=O)N[C@@H](Cc1ccccc1)C(=O)N[C@H](C(=O)N[C@@H](CCCCNC(=O)CC[C@H](NC(=O)CC[C@H](NC(=O)CC[C@H](NC(=O)CC[C@H](NC(=O)CCCCCCCCCCCCCCCCC(=O)O)C(=O)O)C(=O)O)C(=O)O)C(=O)O)C(=O)N[C@@H](Cc1c[nH]c2ccccc12)C(=O)N[C@@H](CC(C)C)C(=O)N[C@@H](CC(C)C)C(=O)N[C@@H](CO)C(=O)N[C@H](C(N)=O)[C@@H](C)O)C(C)C) |
| 0.268 nM | HSQGTFTSDYSKYLDVRRAQDFVK([γGlu-γGlu-γGlu-γGlu-C18 diacid])WLLST-NH2 (N-terminus assumed; SMILES CC(C)C[C@H](NC(=O)[C@H](Cc1c[nH]c2ccccc12)NC(=O)[C@H](CCCCNC(=O)CC[C@H](NC(=O)CC[C@H](NC(=O)CC[C@H](NC(=O)CC[C@H](NC(=O)CCCCCCCCCCCCCCCCC(=O)O)C(=O)O)C(=O)O)C(=O)O)C(=O)O)NC(=O)[C@@H](NC(=O)[C@H](Cc1ccccc1)NC(=O)[C@H](CC(=O)O)NC(=O)[C@H](CCC(N)=O)NC(=O)[C@H](C)NC(=O)[C@H](CCCNC(=N)N)NC(=O)[C@H](CCCNC(=N)N)NC(=O)[C@@H](NC(=O)[C@H](CC(=O)O)NC(=O)[C@H](CC(C)C)NC(=O)[C@H](Cc1ccc(O)cc1)NC(=O)[C@H](CCCCN)NC(=O)[C@H](CO)NC(=O)[C@H](Cc1ccc(O)cc1)NC(=O)[C@H](CC(=O)O)NC(=O)[C@H](CO)NC(=O)[C@@H](NC(=O)[C@H](Cc1ccccc1)NC(=O)[C@@H](NC(=O)CNC(=O)[C@H](CCC(N)=O)NC(=O)[C@H](CO)NC(=O)[C@@H](N)Cc1c[nH]cn1)[C@@H](C)O)[C@@H](C)O)C(C)C)C(C)C)C(=O)N[C@@H](CC(C)C)C(=O)N[C@@H](CO)C(=O)N[C@H](C(N)=O)[C@@H](C)O) |
| 0.081 nM | HSQGTFTSDYSKYLDIRRAQDFVK([γGlu-γGlu-AEEA-AEEA-γGlu-C18 diacid])WLLNT |
| 0.064 nM | HSQGTFTSDYSRYLDLRRAQDFVK([γGlu-γGlu-AEEA-AEEA-γGlu-C16 diacid])WLLAT |
| 0.09 nM | HSQGTFTSDYSRYLDLRRAQDFVK([γGlu-γGlu-AEEA-AEEA-γGlu-C16 diacid])WLLGT |
| 0.025 nM | HSQGTFTSDYSRYLDTRRAQDFVK([γGlu-γGlu-AEEA-AEEA-γGlu-C16 diacid])WLLST |
| 0.026 nM | HSQGTFTSDYSRYLDVRRAQDFVK([γGlu-γGlu-AEEA-AEEA-γGlu-C16 diacid])WLLST |
| 0.029 nM | HSQGTFTSDYSRYLDERRAQDFVK([γGlu-γGlu-AEEA-AEEA-γGlu-C16 diacid])WLLST |
| 0.47 nM | HSQGTFTSDYSRYLDLRRAQDFVK([γGlu-γGlu-AEEA-AEEA-γGlu-C18 diacid])WLLGT |
| 0.062 nM | HSQGTFTSDYSRYLDARRAQDFVK([γGlu-γGlu-γGlu-γGlu-C18 diacid])WLLST |
| 0.022 nM | HSQGTFTSDYSRYLDARRAQDFVK([γGlu-γGlu-AEEA-AEEA-γGlu-C16 diacid])WLLST |
| 0.812 nM | HSQGTFTSDYSKYLDLRRAQDFVK([γGlu-γGlu-γGlu-γGlu-C18 diacid])WLLST-NH2 (N-terminus assumed; SMILES CC(C)C[C@H](NC(=O)[C@H](CC(=O)O)NC(=O)[C@H](CC(C)C)NC(=O)[C@H](Cc1ccc(O)cc1)NC(=O)[C@H](CCCCN)NC(=O)[C@H](CO)NC(=O)[C@H](Cc1ccc(O)cc1)NC(=O)[C@H](CC(=O)O)NC(=O)[C@H](CO)NC(=O)[C@@H](NC(=O)[C@H](Cc1ccccc1)NC(=O)[C@@H](NC(=O)CNC(=O)[C@H](CCC(N)=O)NC(=O)[C@H](CO)NC(=O)[C@@H](N)Cc1c[nH]cn1)[C@@H](C)O)[C@@H](C)O)C(=O)N[C@@H](CCCNC(=N)N)C(=O)N[C@@H](CCCNC(=N)N)C(=O)N[C@@H](C)C(=O)N[C@@H](CCC(N)=O)C(=O)N[C@@H](CC(=O)O)C(=O)N[C@@H](Cc1ccccc1)C(=O)N[C@H](C(=O)N[C@@H](CCCCNC(=O)CC[C@H](NC(=O)CC[C@H](NC(=O)CC[C@H](NC(=O)CC[C@H](NC(=O)CCCCCCCCCCCCCCCCC(=O)O)C(=O)O)C(=O)O)C(=O)O)C(=O)O)C(=O)N[C@@H](Cc1c[nH]c2ccccc12)C(=O)N[C@@H](CC(C)C)C(=O)N[C@@H](CC(C)C)C(=O)N[C@@H](CO)C(=O)N[C@H](C(N)=O)[C@@H](C)O)C(C)C) |
| 0.036 nM | HSHGTFTSDYSKYLETRRAQDFVK([γGlu-γGlu-AEEA-AEEA-γGlu-C18 diacid])WLLNT |
| 0.039 nM | HSQGTFTSDYSKYLDLRRAQDFVK([γGlu-γGlu-AEEA-AEEA-γGlu-C16 diacid])WLLST |
| 0.134 nM | HSQGTFTSDYSKYLDVRRAQDFVK([γGlu-γGlu-γGlu-γGlu-C18 diacid])WLLST |
| 0.017 nM | HSQGTFTSDYSKYLDERRAQDFVK([γGlu-γGlu-AEEA-AEEA-γGlu-C16 diacid])WLLST |
| 0.253 nM | HSQGTFTSDYSRYLDLRRAQDFVK([γGlu-γGlu-AEEA-AEEA-γGlu-C18 diacid])WLLAT |
| 0.066 nM | HSQGTFTSDYSRYLDARRAQDFVK([γGlu-γGlu-γGlu-C18 diacid])WLLST |
| 0.343 nM | HSQGTFTSDYSRYLDLRRAQDFVK([γGlu-γGlu-γGlu-γGlu-C18 diacid])WLLST |
| 0.016 nM | HSQGTFTSDYSKYLDARRAQDFVK([γGlu-γGlu-AEEA-AEEA-γGlu-C16 diacid])WLLST |
